The values below come from PMC3216068.

The assay has as its target SUMO1 (human) (UniProt P63165). Nature of the assay: SPR; preliminary BiaCore analyses, done by Affina Biotechnologies as a paid service.
Chain of UniProt P63165 (P63165 1-97): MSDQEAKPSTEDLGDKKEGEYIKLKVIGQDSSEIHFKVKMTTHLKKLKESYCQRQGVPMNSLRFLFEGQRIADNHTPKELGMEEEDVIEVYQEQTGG

For orientation: Kd means the free concentration of one partner at which half of the binding sites on the other are occupied at equilibrium, for simple one-to-one binding. On to “Ulp1(3)^(C580S) as used in the BiaCore analyses (from UniProt Q02724 341-621) (domain or fragment)”, for which the Kd was determined as 0.0128 µM.
